Source: patent US20170298395A1, “AUTOTROPHIC HYDROGEN BACTERIA AND USES THEREOF” (Ohio State Innovation Foundation, priority 2011, published 2017)

Tested on: R. eutropha
Test: Relative promoter strength / gene expression in R. eutropha
Format: cell-based
Details: autotrophic growth conditions
Procedure: The lac and tac promoters are E. coli promoters, but have been used to drive gene expression of other genes in R. eutropha. The pha promoter is a native R. eutropha promoter and drives expression of genes involved in polyhydroxybutyrate (PHB) production. The relative strength of these promoters in R. eutropha was determined. The pha promoter was 1.2 times stronger than the lac promoter and that the tac promoter was 2.1 times stronger than the lac promoter (1). The cbbM and cbbL promoters were also examined. The cbbM and cbbL promoters are strong promoters which drive expression of the genes that encode for RubisCO in Rhodosporilium rubrum/Rhodobacter sphaeroides/Rhodobacter capsulatus and R. eutropha, respectively. […] Each promoter was placed in the vector pBBR1MCS3, and the ability of these gene expression vectors was assessed (Table 4). The pBBR1 vector has Accession No. U02374 (4707 bp). The pBBR1MCS-3 vector has Accession No. U25059 (5228 bp). Plasmid pRPS-MCS3 (SEQ ID NO: 36) (see Journal of Molecular Biology, 331(3): 557-569 (2003)) derives from plasmid pBBR1-MCS3.
Vectors were made with the native cbbL and constitutive cbbL promoters. The cbbL promoter is native to R. eutropha and is highly expressed and regulated. […] To construct strains with a constitutive cbbL promoter, the lac promoter within the pBBR1MCS-3 vector was removed and replaced by the constitutive cbbL promoter. […]

B1: constitutive cbbL promoter: constitutive R. eutropha cbbL promoter, SEQ ID NO: 30 (nucleic acid)
DNA: GCAACTGGCGAAGGGTAAGGGCGCGCAGGAAGGACGACATGGGCGGTTGGGGGCGGCTTTGGATGGTCCCGTGATGTGCAGCTTGGTCCGCACTTAAGGGATTGCTTATACAGGGGCTAAGAATATCTGAATTGACATTATGTGGGTGGGCTTATATAATTGCATCAACGCAGCAGCCAAGACGCTCAACCACGCAAGGAGACAAGC
increase in gene expression: 2.4 fold
